# Measurements published in patent US20060115476A1 (ADIENNE, published 2006).
# T1: C5 beta chain (human, UniProt P01031 19-673, reduced with DTT and treated with iodoacetamide (alkylated cysteines))
# T1 construct: domain: beta chain; Separated from purified C5 by reduction, alkylation and gel filtration on Superose 12; also called beta sub-unit of C5; C5 beta subunit
# T1 sequence (looked up): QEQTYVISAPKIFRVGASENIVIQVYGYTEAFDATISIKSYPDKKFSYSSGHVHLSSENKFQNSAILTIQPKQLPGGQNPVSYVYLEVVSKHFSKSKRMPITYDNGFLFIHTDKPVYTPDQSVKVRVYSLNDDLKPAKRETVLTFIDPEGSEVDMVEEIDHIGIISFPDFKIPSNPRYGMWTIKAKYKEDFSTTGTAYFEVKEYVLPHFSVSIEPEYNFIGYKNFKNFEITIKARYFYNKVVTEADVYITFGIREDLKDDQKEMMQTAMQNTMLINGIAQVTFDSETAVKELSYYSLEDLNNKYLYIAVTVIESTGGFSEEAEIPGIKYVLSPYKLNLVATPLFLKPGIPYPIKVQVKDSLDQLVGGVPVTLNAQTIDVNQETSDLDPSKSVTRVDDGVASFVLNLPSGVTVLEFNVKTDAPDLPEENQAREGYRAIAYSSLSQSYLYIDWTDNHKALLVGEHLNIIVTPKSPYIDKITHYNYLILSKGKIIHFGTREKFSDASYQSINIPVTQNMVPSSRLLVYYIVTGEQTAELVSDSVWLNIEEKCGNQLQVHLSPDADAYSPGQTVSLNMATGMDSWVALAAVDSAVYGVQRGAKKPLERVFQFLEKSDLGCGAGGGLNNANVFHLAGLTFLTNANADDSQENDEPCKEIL
# B1: unrelated peptide CS5, derived from fibronectin (GEEIQIGHIPREDVDYHLYP) (peptide)
# peptide: GEEIQIGHIPREDVDYHLYP
# B2: scFv TS-A12/22 (scFv, not shown: small tags and cut ends)
# scFv: DIRMTQSPDSLAVSLGERATINCKSSQSVLYSSNNKNYLAWYQQKPGQPPKLLIYWASTRESGVPDRFSGSGSGTDFTLTISSLQAEDVAVYYCQQYYSTPQLTFGGRTKVDIKSGGSTITSYNVYYTKLSSSGTQVQLQQSEGGVVQPGRSLRLSCAASGFTFSSYGMNWVRQAPGKGLEWVSYISSSSSTIYYADSVKGRFTISRDNSKNTLYLQMNSLRAEDTAVYYCARGPGMDVWGQGTTVTVSS
# notes: Obtained from TS-A12 by VL chain shuffling; also called TS-A12/22 antibody
# How the values were obtained:
# [1] = molecular target: B2; assay: competitive ELISA: scFv TSA-12/22 (1 µg/ml) pre-incubated with the peptide, then binding to C5 on solid phase, given as % of the saline control
# Source text: (§1) This peptide corresponds to region 727-744 of the mature protein and comprises the cleavage site of C5 convertase (indicated by the arrow) between glycine 733 and arginine 734 according to SwissProt numbering for human C5 (SEQ ID P01031). The peptide was used in a competitive ELISA assay on the C5 protein on solid phase. […] (SEQ ID No. 16 of sequence listing) corresponding to a fibronectin derived peptide termed CS5.
# [2] = molecular target: T1, C5 beta chain; assay: Western blot
# [3] = molecular target: T2, C5 component of the complement system (purified C5) (human, UniProt P01031 19-673; P01031 678-1676); assay: SPR, BIACORE 2000, C5 immobilised on the chip
# T2 construct: domain: beta chain;domain: alpha chain; In haemolytic assays it was purified C5 or the C5 of human serum; also called factor C5; C5 antigen
# Description: The microchip (CM5, Biacore) was prepared by direct conjugation of the C5 antigen with amines (20 μg/ml in 10 mM Sodium Acetate pH 4.5). The final level of immobilisation turned out to be approximately 1000 RU (Resonance Units). Association and dissociation of antibody molecules from the bio-chip were measured using an optical detection system (Surface Plasmon Resonance).
# The analysis was carried out at 25° C., at a flow of 15 μl/min, using 4 different scFv concentrations in the range comprised between 100-300 nM, in PBS, 0.005% P20 (Biacore). The binding curves were interpolated 1:1 according to the model of Langmuir, using the dedicated software termed BIAevaluation (version 3.5) with correction for the mass transfer.
# [4] = molecular target: B1; assay: competitive ELISA: scFv pre-incubated with the peptide, binding to C5 on solid phase
# Source text: as §1
# T2 sequence (P01031 678-1676 limits assumed, one chain of several): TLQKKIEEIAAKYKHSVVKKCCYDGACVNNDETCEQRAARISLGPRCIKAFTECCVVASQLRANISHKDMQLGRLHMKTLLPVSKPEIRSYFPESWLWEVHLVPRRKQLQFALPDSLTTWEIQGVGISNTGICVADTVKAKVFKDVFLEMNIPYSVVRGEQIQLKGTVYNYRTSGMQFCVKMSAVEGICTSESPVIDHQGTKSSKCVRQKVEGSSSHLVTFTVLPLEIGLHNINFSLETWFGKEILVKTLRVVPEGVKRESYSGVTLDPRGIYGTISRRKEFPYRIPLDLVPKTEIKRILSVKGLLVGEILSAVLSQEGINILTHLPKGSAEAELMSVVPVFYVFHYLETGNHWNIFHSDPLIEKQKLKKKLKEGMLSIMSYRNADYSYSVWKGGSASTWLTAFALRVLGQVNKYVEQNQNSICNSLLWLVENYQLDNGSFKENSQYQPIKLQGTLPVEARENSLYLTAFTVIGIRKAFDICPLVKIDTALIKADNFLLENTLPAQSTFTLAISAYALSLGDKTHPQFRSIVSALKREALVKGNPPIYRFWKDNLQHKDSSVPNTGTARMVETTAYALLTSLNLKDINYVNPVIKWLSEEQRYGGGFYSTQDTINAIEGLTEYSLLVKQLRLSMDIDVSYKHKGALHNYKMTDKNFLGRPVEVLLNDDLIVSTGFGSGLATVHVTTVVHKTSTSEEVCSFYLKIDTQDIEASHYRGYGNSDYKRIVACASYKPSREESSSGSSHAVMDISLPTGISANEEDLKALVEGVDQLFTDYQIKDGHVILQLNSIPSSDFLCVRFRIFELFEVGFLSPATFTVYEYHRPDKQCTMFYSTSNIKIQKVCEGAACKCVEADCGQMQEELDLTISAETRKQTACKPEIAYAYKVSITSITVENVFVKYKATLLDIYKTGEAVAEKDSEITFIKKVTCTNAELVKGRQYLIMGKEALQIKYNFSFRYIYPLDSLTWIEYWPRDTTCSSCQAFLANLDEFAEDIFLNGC
binding result [1],Kd [3],binding result [4],Binder,binding result [2]
no binding (tested: 800 ng),–,–,B1,–
–,18 nM,no binding (tested: 800 ng),B2,no binding (tested: 100 ng of beta chain)
